Experimental data as given in patent US20180291110A1 (Hoffmann-La Roche, published 2018).

B1: 2/99 VH11/VL10 (antibody, V domains shown)
VH: QQLLESGGGLVQPGGSLRLSCAASGFSLSSYAMSWVRQAPGKGLEWVGYIWSGGSTDYADSVKGRFTISRDNSKNTLYLQMNSLRAEDTAVYYCARRYGTSYPDYGDANGFDPWGQGTLVTVSS
VL: DIQMTQSPSSLSASVGDRVTITCRASQSISSYLSWYQQKPGKAPKLLIYRASTLASGVPSRFSGSRSGTDFTLTISSLQPEDFATYYCQQSYSSSNVDNTFGGGTKVEIK
B2: 2/99 VH18/VL10 (antibody, V domains shown)
VH: QVQLQESGPGLVKPSQTLSLTCTVSGFSLSSYAMSWIRQHPGKGLEWIGYIWSGGSTDYAPSLKSRVTISVDTSKNQFSLKLSSVTAADTAVYYCARRYGTSYPDYGDANGFDPWGQGTLVTVSS
VL: DIQMTQSPSSLSASVGDRVTITCRASQSISSYLSWYQQKPGKAPKLLIYRASTLASGVPSRFSGSRSGTDFTLTISSLQPEDFATYYCQQSYSSSNVDNTFGGGTKVEIK
B3: 2/99 VH2/VL12 (antibody, V domains shown)
VH: EVQLVETGGGLIQPGGSLRLSCAASGFSLSSYAMSWVRQAPGKGLEWVGYIWSGGSTDYADSVKGRFTISRDNSKNTLYLQMNSLRAEDTAVYYCARRYGTSYPDYGDANGFDPWGQGTLVTVSS
VL: DIQMTQSPSSLSASVGDRVTITCRASQSISSYLAWYQQKPGKAPKLLIYRASTLASGVPSRFSGSRSGTDFTLTISSLQPEDFATYYCQQHYSSSNVDNTFGGGTKVEIK
B4: 2/99 VH13/VL10 (antibody, V domains shown)
VH: QVQLQESGPGLVKPSETLSLTCTVSGFSLSSYAMSWIRQPPGKGLEWIGYIWSGGSTDYNPSLKSRVTISVDTSKNQVSLKLSSVTAADTAVYYCARRYGTSYPDYGDANGFDPWGQGTLVTVSS
VL: DIQMTQSPSSLSASVGDRVTITCRASQSISSYLSWYQQKPGKAPKLLIYRASTLASGVPSRFSGSRSGTDFTLTISSLQPEDFATYYCQQSYSSSNVDNTFGGGTKVEIK
B5: 2/99 VH17/VL10 (antibody, V domains shown)
VH: QQLQESGPGLVKPSETLSLTCTVSGFSLSSYAMSWVRQPPGKGLEWIGYIWSGGSTDYNPSLKSRVTISKDTSKNQVSLKLSSVTAADTAVYYCARRYGTSYPDYGDANGFDPWGPGTLVTVSS
VL: DIQMTQSPSSLSASVGDRVTITCRASQSISSYLSWYQQKPGKAPKLLIYRASTLASGVPSRFSGSRSGTDFTLTISSLQPEDFATYYCQQSYSSSNVDNTFGGGTKVEIK
B6: 2/99 VH16/VL10 (antibody, V domains shown)
VH: QQLQESGPGLVKPSETLSLTCTVSGFSLSSYAMSWVRQPPGKGLEWIGYIWSGGSTDYNPSLKSRVTISVDTSKNQVSLKLSSVTAADTAVYYCARRYGTSYPDYGDANGFDPWGPGTLVTVSS
VL: DIQMTQSPSSLSASVGDRVTITCRASQSISSYLSWYQQKPGKAPKLLIYRASTLASGVPSRFSGSRSGTDFTLTISSLQPEDFATYYCQQSYSSSNVDNTFGGGTKVEIK
B7: 2/99 VH19/VL10 (antibody, V domains shown)
VH: QSMQESGPGLVKPSQTLSLTCTVSGFSLSSYAMSWIRQHPGKGLEWIGYIWSGGSTDYAPSLKSRVTISVDTSKNQFSLKLSSVTAADTAVYYCARRYGTSYPDYGDANGFDPWGQGTLVTVSS
VL: DIQMTQSPSSLSASVGDRVTITCRASQSISSYLSWYQQKPGKAPKLLIYRASTLASGVPSRFSGSRSGTDFTLTISSLQPEDFATYYCQQSYSSSNVDNTFGGGTKVEIK
B8: 2/99 VH20/VL10 (antibody, V domains shown)
VH: QSMQESGPGLVKPSQTLSLTCTVSGFSLSSYAMSWIRQHPGKGLEWIGYIWSGGSTDYAPSLKSRVTISVDTSKNQVSLKLSSVTAADTAVYYCARRYGTSYPDYGDANGFDPWGQGTLVTVSS
VL: DIQMTQSPSSLSASVGDRVTITCRASQSISSYLSWYQQKPGKAPKLLIYRASTLASGVPSRFSGSRSGTDFTLTISSLQPEDFATYYCQQSYSSSNVDNTFGGGTKVEIK
B9: 2/99 VH22/VL10 (antibody, V domains shown)
VH: QSMQESGPGLVKPSQTLSLTCTVSGFSLSSYAMSWVRQHPGKGLEWIGYIWSGGSTDYASWAKSRVTISVDTSKNQVSLKLSSVTAADTAVYYCARRYGTSYPDYGDANGFDPWGQGTLVTVSS
VL: DIQMTQSPSSLSASVGDRVTITCRASQSISSYLSWYQQKPGKAPKLLIYRASTLASGVPSRFSGSRSGTDFTLTISSLQPEDFATYYCQQSYSSSNVDNTFGGGTKVEIK
B10: 2/99 VH23-DANG/VL10 (antibody, V domains shown)
VH: QSMQESGPGLVKPSQTLSLTCTVSGFSLSSYAMSWIRQHPGKGLEWIGYIWSGGSTDYASWAKSRVTISKTSTTVSLKLSSVTAADTAVYYCARRYGTSYPDYGDANGFDPWGQGTLVTVSS
VL: DIQMTQSPSSLSASVGDRVTITCRASQSISSYLSWYQQKPGKAPKLLIYRASTLASGVPSRFSGSRSGTDFTLTISSLQPEDFATYYCQQSYSSSNVDNTFGGGTKVEIK
B11: 2/99 VH21/VL10 (antibody, V domains shown)
VH: QSMQESGPGLVKPSQTLSLTCTVSGFSLSSYAMSWIRQHPGKGLEWIGYIWSGGSTDYASWAKSRVTISVDTSKNQVSLKLSSVTAADTAVYYCARRYGTSYPDYGDANGFDPWGQGTLVTVSS
VL: DIQMTQSPSSLSASVGDRVTITCRASQSISSYLSWYQQKPGKAPKLLIYRASTLASGVPSRFSGSRSGTDFTLTISSLQPEDFATYYCQQSYSSSNVDNTFGGGTKVEIK
B12: 2/99 VH5/VL12 (antibody, V domains shown)
VH: QSMEETGGGLIQPGGSLRLSCAASGFSLSSYAMSWVRQAPGKGLEWVGYIWSGGSTDYADSVKGRFTISRDNSKNTLYLQMNSLRAEDTAVYYCARRYGTSYPDYGDANGFDPWGPGTLVTVSS
VL: DIQMTQSPSSLSASVGDRVTITCRASQSISSYLAWYQQKPGKAPKLLIYRASTLASGVPSRFSGSRSGTDFTLTISSLQPEDFATYYCQQHYSSSNVDNTFGGGTKVEIK
B13: 2/99 VH12/VL10 (antibody, V domains shown)
VH: QVQLQESGPGLVKPSETLSLTCTVSGFSLSSYAMSWIRQPPGKGLEWIGYIWSGGSTDYNPSLKSRVTISVDTSKNQFSLKLSSVTAADTAVYYCARRYGTSYPDYGDANGFDPWGQGTLVTVSS
VL: DIQMTQSPSSLSASVGDRVTITCRASQSISSYLSWYQQKPGKAPKLLIYRASTLASGVPSRFSGSRSGTDFTLTISSLQPEDFATYYCQQSYSSSNVDNTFGGGTKVEIK
B14: 2/99 VH1/VL12 (antibody, V domains shown)
VH: VQLVETGGGLIQPGGSLRLSCAASGFSLSSYAMSWVRQAPGKGLEWVGYIWSGGSTDYADSVKGRFTISRDNSKNTLYLQMNSLRAEDTAVYYCARRYGTSYPDYGDANGFDPWGQGTLVTVSS
VL: DIQMTQSPSSLSASVGDRVTITCRASQSISSYLAWYQQKPGKAPKLLIYRASTLASGVPSRFSGSRSGTDFTLTISSLQPEDFATYYCQQHYSSSNVDNTFGGGTKVEIK
B15: 2/99 VH15/VL10 (antibody, V domains shown)
VH: QQLQESGPGLVKPSETLSLTCTVSGFSLSSYAMSWVRQPPGKGLEWIGYIWSGGSTDYNPSLKSRVTISVDTSKNQVSLKLSSVTAADTAVYYCARRYGTSYPDYGDANGFDPWGQGTLVTVSS
VL: DIQMTQSPSSLSASVGDRVTITCRASQSISSYLSWYQQKPGKAPKLLIYRASTLASGVPSRFSGSRSGTDFTLTISSLQPEDFATYYCQQSYSSSNVDNTFGGGTKVEIK

What follows are binders tested against T1, human transferrin receptor (recombinant, for surface plasmon resonance) (human, UniProt P02786 89-760) (assay: SPR 25C).
T1 construct: also called huTfR; human transferrin receptor-biotinylated
T1 sequence (P02786 89-760 limits assumed): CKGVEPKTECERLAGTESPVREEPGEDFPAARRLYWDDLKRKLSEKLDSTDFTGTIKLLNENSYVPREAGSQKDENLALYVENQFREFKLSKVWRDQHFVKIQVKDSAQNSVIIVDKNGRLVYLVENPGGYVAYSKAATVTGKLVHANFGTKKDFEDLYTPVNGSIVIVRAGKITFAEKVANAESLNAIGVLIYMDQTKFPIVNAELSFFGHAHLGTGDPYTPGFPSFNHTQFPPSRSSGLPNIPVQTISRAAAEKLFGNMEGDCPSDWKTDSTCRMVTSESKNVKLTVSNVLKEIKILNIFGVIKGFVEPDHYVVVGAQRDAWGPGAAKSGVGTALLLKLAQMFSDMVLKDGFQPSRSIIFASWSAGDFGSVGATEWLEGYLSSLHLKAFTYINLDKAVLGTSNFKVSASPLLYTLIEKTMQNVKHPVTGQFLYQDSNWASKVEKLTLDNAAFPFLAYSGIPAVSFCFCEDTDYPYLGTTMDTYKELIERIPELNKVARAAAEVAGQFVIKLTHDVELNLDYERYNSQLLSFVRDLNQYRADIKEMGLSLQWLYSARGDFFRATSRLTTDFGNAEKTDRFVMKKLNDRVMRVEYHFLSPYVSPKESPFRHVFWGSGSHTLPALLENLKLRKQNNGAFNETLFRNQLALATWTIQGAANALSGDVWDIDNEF

B1 and B2 are within 1.5-fold of each other in koff: 0.00716 s⁻¹ for the first, 0.00746 s⁻¹ for the second.

B3 and B4 are within 1.5-fold of each other in koff: 0.00814 s⁻¹ for the first, 0.00589 s⁻¹ for the second.

Going from B5 to B6, the koff rises from 0.00188 s⁻¹ to 0.00424 s⁻¹ (2.3-fold).

First: B7
Second: B8
The koff of the first is 7-fold lower: 0.001 s⁻¹ for the first, 0.00705 s⁻¹ for the second.

Going from B9 to B10, the koff falls from 0.00209 s⁻¹ to 0.0012 s⁻¹ (1.7-fold).

Compared with B11, B12 is 2.1-fold lower in koff: 0.00211 s⁻¹ for the first, 0.001 s⁻¹ for the second.

B13 and B14 are within 1.5-fold of each other in koff: 0.00779 s⁻¹ for the first, 0.00705 s⁻¹ for the second.

B15 gave a koff of 0.00399 s⁻¹.
